In patent publication US10253076B2, “Peptides and combination of peptides for use in immunotherapy against ovarian cancer and other cancers” (immatics biotechnologies GmbH, priority 2015, dated 2019):

Target: HLA-A*02:01 (Homo sapiens, UniProt P04439, D140Y/D185E/D98H/E176V/E277Q/G131W/G231S/I119V/I121R/I166T/I218V/L300P/L318F/N151K/N90K/P208A/P217A/Q86G/Q94H/R138H/R169H/T345S)
Test: MHC binding assay (UV-ligand exchange, beta2m ELISA, peptide exchange yield)
Settings: binding of HLA-class I restricted peptides to HLA-A*02:01, ranged by peptide exchange yield (UV-ligand exchange, β2m ELISA)
How it was run: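 Readout is a β2m ELISA: stabilized complexes captured on streptavidin, detected with HRP-conjugated anti-β2m and TMB at 450 nm, reporting peptide exchange yield. Complexes come from UV-light cleavage of a conditional ligand in HLA-A*02:01 and replacement by the candidate peptide, samples diluted 100-fold.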

Substance | Peptide exchange
545 (LLADLLHNV; listed as Homo sapiens) [compound 545] | ″+++″ (≥50% = +++)
277 (LLPPLESLATV; listed as Homo sapiens) [compound 277] | ″++″ (≥20% = ++)
309 (GLFDGVPTTA; listed as Homo sapiens) [compound 309] | ″+++″ (≥50% = +++)
224 (TLIDAQWVL; listed as Homo sapiens) [compound 224] | ″+++″ (≥50% = +++)
351 (SLIPNLRNV; listed as Homo sapiens) [compound 351] | ″+++″ (≥50% = +++)
378 (ALGYFVPYV; listed as Homo sapiens) [compound 378] | ″+++″ (≥50% = +++)
271 (LVYPLELYPA; listed as Homo sapiens) [compound 271] | ″+++″ (≥50% = +++)
395 (ALALGGIAVV; listed as Homo sapiens) [compound 395] | ″++++″ (≥75% = ++++)
578 (FLDPGGPMMKL; listed as Homo sapiens) [compound 578] | ″+++″ (≥50% = +++)
597 (KLLEGQVIQL; listed as Homo sapiens) [compound 597] | ″+++″ (≥50% = +++)
547 (TLDITPHTV; listed as Homo sapiens) [compound 547] | ″+++″ (≥50% = +++)
590 (SLIEKLWQT; listed as Homo sapiens) [compound 590] | ″++″ (≥20% = ++)
111 (YVWGFYPAEV; listed as Homo sapiens) [compound 111] | ″+++″ (≥50% = +++)
233 (VLSETLYEL; listed as Homo sapiens) [compound 233] | ″++″ (≥20% = ++)
408 (VLDDSIYLV; listed as Homo sapiens) [compound 408] | ″++″ (≥20% = ++)
492 (SLFDGFADGLGV; listed as Homo sapiens) [compound 492] | ″+++″ (≥50% = +++)
601 (SAFPFPVTV; listed as Homo sapiens) [compound 601] | ″+++″ (≥50% = +++)
571 (LLLTTIPQI; listed as Homo sapiens) [compound 571] | ″+++″ (≥50% = +++)
462 (KLAKQPETV; listed as Homo sapiens) [compound 462] | ″+++″ (≥50% = +++)
153 (FLIANVLYL; listed as Homo sapiens) [compound 153] | ″+″ (≥10% = +)

Substance | Peptide exchange
250 (ALSEEGLLVYL; listed as Homo sapiens) [compound 250] | ″+++″ (≥50% = +++)
273 (NLFQSVREV; listed as Homo sapiens) [compound 273] | ″++″ (≥20% = ++)
265 (LLFGGTKTV; listed as Homo sapiens) [compound 265] | ″++″ (≥20% = ++)
22 (IMEENPGIFAV; listed as Homo sapiens) [compound 22] | ″+++″ (≥50% = +++)
361 (ALYELEGTTV; listed as Homo sapiens) [compound 361] | ″+++″ (≥50% = +++)
448 (NLLETKLQL; listed as Homo sapiens) [compound 448] | ″+++″ (≥50% = +++)
169 (NLPEYLPFV; listed as Homo sapiens) [compound 169] | ″+++″ (≥50% = +++)
103 (TLAEEVVAL; listed as Homo sapiens) [compound 103] | ″+++″ (≥50% = +++)
15 (VLLTFKIFL; listed as Homo sapiens) [compound 15] | ″++″ (≥20% = ++)
579 (NLMEMVAQL; listed as Homo sapiens) [compound 579] | ″++″ (≥20% = ++)
154 (ALDDGTPAL; listed as Homo sapiens) [compound 154] | ″++″ (≥20% = ++)
308 (SQYSGQLHEV; listed as Homo sapiens) [compound 308] | ″+++″ (≥50% = +++)
434 (KVSNSGITRV; listed as Homo sapiens) [compound 434] | ″++″ (≥20% = ++)
613 (RLLPPGAVVAV; listed as Homo sapiens) [compound 613] | ″+++″ (≥50% = +++)
126 (VLAYFLPEA; listed as Homo sapiens) [compound 126] | ″++++″ (≥75% = ++++)
350 (ALLDVTHSELTV; listed as Homo sapiens) [compound 350] | ″+++″ (≥50% = +++)
47 (ILLSVPLLVV; listed as Homo sapiens) [compound 47] | ″++″ (≥20% = ++)
16 (VLFQGQASL; listed as Homo sapiens) [compound 16] | ″+++″ (≥50% = +++)
114 (SLVGEPILQNV; listed as Homo sapiens) [compound 114] | ″++″ (≥20% = ++)
600 (ALAAPDIVPAL; listed as Homo sapiens) [compound 600] | ″+++″ (≥50% = +++)

Substance | Peptide exchange
251 (ALYTGFSILV; listed as Homo sapiens) [compound 251] | ″++″ (≥20% = ++)
23 (VLLDDIFAQL; listed as Homo sapiens) [compound 23] | ″+++″ (≥50% = +++)
69 (FQLDPSSGVLVTV; listed as Homo sapiens) [compound 69] | ″+++″ (≥50% = +++)
324 (FLYDEIEAEV; listed as Homo sapiens) [compound 324] | ″+++″ (≥50% = +++)
372 (TMLLNIPLV; listed as Homo sapiens) [compound 372] | ″++″ (≥20% = ++)
158 (KLFDVDEDGYI; listed as Homo sapiens) [compound 158] | ″+++″ (≥50% = +++)
388 (SLTIDGIRYV; listed as Homo sapiens) [compound 388] | ″+++″ (≥50% = +++)
315 (YLQDVVEQA; listed as Homo sapiens) [compound 315] | ″+++″ (≥50% = +++)
72 (SLLELDGINL; listed as Homo sapiens) [compound 72] | ″+++″ (≥50% = +++)
96 (YIFTDNPAAV; listed as Homo sapiens) [compound 96] | ″+++″ (≥50% = +++)
42 (VLLQKIVSA; listed as Homo sapiens) [compound 42] | ″+++″ (≥50% = +++)
253 (GLDAATATV; listed as Homo sapiens) [compound 253] | ″++″ (≥20% = ++)
464 (ALNDCIYSV; listed as Homo sapiens) [compound 464] | ″+++″ (≥50% = +++)
325 (FIMPATVADATAV; listed as Homo sapiens) [compound 325] | ″+++″ (≥50% = +++)
576 (ILLNNSGQIKL; listed as Homo sapiens) [compound 576] | ″++++″ (≥75% = ++++)
497 (GLLEKLTAI; listed as Homo sapiens) [compound 497] | ″+++″ (≥50% = +++)
574 (YLLQEPPRTV; listed as Homo sapiens) [compound 574] | ″++″ (≥20% = ++)
459 (ALITEVVRL; listed as Homo sapiens) [compound 459] | ″++″ (≥20% = ++)
333 (FLPDANSSV; listed as Homo sapiens) [compound 333] | ″++″ (≥20% = ++)
